# Experimental data as given in patent US20200283539A1.
# Molecular target: CD33 on HL60 leukemia cells (human) (UniProt P20138)
# Experiment: cell-based or functional assay
# Chain of CD33 on HL60 leukemia cells (human) (P20138 18-364 limits assumed): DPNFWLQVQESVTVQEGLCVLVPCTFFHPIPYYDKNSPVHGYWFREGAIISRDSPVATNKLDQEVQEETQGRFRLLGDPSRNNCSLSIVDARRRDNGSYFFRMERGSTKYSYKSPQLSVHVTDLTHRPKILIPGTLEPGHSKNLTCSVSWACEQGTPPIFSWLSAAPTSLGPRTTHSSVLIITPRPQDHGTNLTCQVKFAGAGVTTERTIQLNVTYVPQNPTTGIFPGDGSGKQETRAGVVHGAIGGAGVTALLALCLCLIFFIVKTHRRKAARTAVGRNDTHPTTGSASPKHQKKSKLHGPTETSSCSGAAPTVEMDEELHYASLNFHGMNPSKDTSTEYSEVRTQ
substance,measurement,value
Lintuzumab conjugated with Actinium-225 (antibody),"LD50 (dose at which 50% of the cells were killed), HL60 cell suspension",8 pCi/mL
